Patent US20060286609A1 (BIOCHECK, published 2006)

What was measured:
Human Id4: Histidine [1] = biological target: T1, Human Id4: Histidine (human, UniProt P47928 1-161, limits assumed); assay: ELISA, coated antigen; relative to mouse Id1
T1 construct: E. coli fusion protein (vector pGW07); also called h-Id4: His; not shown: His-tag
T1 sequence (looked up): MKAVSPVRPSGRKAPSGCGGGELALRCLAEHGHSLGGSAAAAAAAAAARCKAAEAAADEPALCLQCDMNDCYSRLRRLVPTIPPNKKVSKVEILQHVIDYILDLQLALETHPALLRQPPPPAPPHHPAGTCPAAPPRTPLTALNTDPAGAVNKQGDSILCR

Human Id2: Histidine [2] = biological target: T2, Human Id2: Histidine (human, UniProt Q02363 1-134, limits assumed); assay: ELISA, coated antigen; relative to mouse Id1
T2 construct: E. coli fusion protein (vector pGW07); also called h-Id2: His; not shown: His-tag
T2 sequence (looked up): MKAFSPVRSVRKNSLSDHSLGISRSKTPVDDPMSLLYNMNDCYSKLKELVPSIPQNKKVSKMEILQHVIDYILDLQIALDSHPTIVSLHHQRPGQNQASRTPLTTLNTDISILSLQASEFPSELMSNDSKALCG

Mouse Id4: Histidine [3] = biological target: T3, Mouse Id4: Histidine (mouse, UniProt P41139 1-161, limits assumed); assay: ELISA, coated antigen; relative to mouse Id1
T3 construct: E. coli fusion protein (vector pGW07); also called m-Id4: His; not shown: His-tag
T3 sequence (looked up): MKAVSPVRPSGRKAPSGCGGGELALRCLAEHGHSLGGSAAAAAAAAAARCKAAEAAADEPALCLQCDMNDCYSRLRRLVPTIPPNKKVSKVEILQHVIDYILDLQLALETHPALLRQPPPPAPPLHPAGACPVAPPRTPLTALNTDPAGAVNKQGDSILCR

Mouse Id3: Histidine [4] = biological target: T4, Mouse Id3: Histidine (mouse, UniProt P41133 1-119, limits assumed); assay: ELISA, coated antigen; relative to mouse Id1
T4 construct: E. coli fusion protein (vector pGW07); also called m-Id3: His; not shown: His-tag
T4 sequence (looked up): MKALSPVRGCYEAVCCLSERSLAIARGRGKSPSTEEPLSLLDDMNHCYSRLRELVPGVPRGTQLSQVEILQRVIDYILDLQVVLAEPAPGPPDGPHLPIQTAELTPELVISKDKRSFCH

Mouse Id2: Histidine [5] = biological target: T5, Mouse Id2: Histidine (mouse, UniProt P41136 1-134, limits assumed); assay: ELISA, coated antigen; relative to mouse Id1
T5 construct: E. coli fusion protein (vector pGW07); also called m-Id2: His; not shown: His-tag
T5 sequence (looked up): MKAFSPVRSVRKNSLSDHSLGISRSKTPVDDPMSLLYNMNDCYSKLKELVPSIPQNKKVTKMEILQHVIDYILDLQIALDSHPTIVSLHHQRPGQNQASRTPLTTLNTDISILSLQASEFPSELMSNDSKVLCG

Human Id4: Histidine [6] = biological target: T1, Human Id4: Histidine; assay: ELISA, coated antigen, Ab 0.010 ug/ml
Human Id2: Histidine [7] = biological target: T2, Human Id2: Histidine; assay: ELISA, coated antigen, Ab 0.010 ug/ml
Mouse Id4: Histidine [8] = biological target: T3, Mouse Id4: Histidine; assay: ELISA, coated antigen, Ab 0.010 ug/ml
Mouse Id1: Histidine [9] = biological target: T6, Mouse Id1: Histidine (mouse, UniProt P20067-2 1-148); assay: ELISA, coated antigen, Ab 0.010 ug/ml
T6 construct: E. coli fusion protein (vector pGW07); also called m-Id1-His; not shown: His-tag
T6 sequence: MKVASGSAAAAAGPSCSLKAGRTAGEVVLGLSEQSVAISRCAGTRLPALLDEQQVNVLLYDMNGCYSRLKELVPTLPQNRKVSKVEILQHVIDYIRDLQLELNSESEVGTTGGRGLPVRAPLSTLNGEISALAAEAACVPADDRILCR

Mouse Id3: Histidine [10] = biological target: T4, Mouse Id3: Histidine; assay: ELISA, coated antigen, Ab 0.010 ug/ml
Mouse Id2: Histidine [11] = biological target: T5, Mouse Id2: Histidine; assay: ELISA, coated antigen, Ab 0.010 ug/ml
Human Id3: Histidine [12] = biological target: T7, Human Id3: Histidine (human, UniProt Q02535 1-119, limits assumed); assay: ELISA, coated antigen, Ab 0.010 ug/ml
T7 construct: E. coli fusion protein (vector pGW07); also called h-Id3: His; not shown: His-tag
T7 sequence (looked up): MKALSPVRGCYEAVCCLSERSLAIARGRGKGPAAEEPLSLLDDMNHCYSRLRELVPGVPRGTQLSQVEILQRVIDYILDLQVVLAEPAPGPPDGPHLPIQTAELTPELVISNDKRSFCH

Human Id4: Histidine [13] = biological target: T1, Human Id4: Histidine; assay: ELISA, coated antigen, Ab 0.000 ug/ml (blank, diluent only)
Mouse Id4: Histidine [14] = biological target: T3, Mouse Id4: Histidine; assay: as above
Mouse Id2: Histidine [15] = biological target: T5, Mouse Id2: Histidine; assay: as above
Human Id4: Histidine [16] = biological target: T1, Human Id4: Histidine; assay: ELISA, coated antigen, Ab 0.050 ug/ml
Human Id2: Histidine [17] = biological target: T2, Human Id2: Histidine; assay: ELISA, coated antigen, Ab 0.050 ug/ml
Mouse Id4: Histidine [18] = biological target: T3, Mouse Id4: Histidine; assay: ELISA, coated antigen, Ab 0.050 ug/ml
Mouse Id1: Histidine [19] = biological target: T6, Mouse Id1: Histidine; assay: ELISA, coated antigen, Ab 0.050 ug/ml
Mouse Id3: Histidine [20] = biological target: T4, Mouse Id3: Histidine; assay: ELISA, coated antigen, Ab 0.050 ug/ml
Mouse Id2: Histidine [21] = biological target: T5, Mouse Id2: Histidine; assay: ELISA, coated antigen, Ab 0.050 ug/ml
Human Id3: Histidine [22] = biological target: T7, Human Id3: Histidine; assay: ELISA, coated antigen, Ab 0.050 ug/ml

With “rabbit monoclonal anti-mouse/human Id1, clone #BCH-1/#195-14 (antibody)” the Cross-reactivity (%) (Human Id4: Histidine [1]) was < 1%, the Cross-reactivity (%) (Human Id2: Histidine [2]) was < 1% and the Cross-reactivity (%) (Mouse Id4: Histidine [3]) was < 1%. For the same molecule, the Cross-reactivity (%) (Mouse Id3: Histidine [4]) was < 1%, the Cross-reactivity (%) (Mouse Id2: Histidine [5]) was < 1% and the A450 (Human Id4: Histidine [6]) was 0.046 A450. For the same molecule, the A450 (Human Id2: Histidine [7]) was 0.054 A450, the A450 (Mouse Id4: Histidine [8]) was 0.045 A450 and the A450 (Mouse Id1: Histidine [9]) was 0.424 A450. For the same molecule, the A450 (Mouse Id3: Histidine [10]) was 0.047 A450, the A450 (Mouse Id2: Histidine [11]) was 0.048 A450 and the A450 (Human Id3: Histidine [12]) was 0.048 A450. It also gave an A450 (Human Id4: Histidine [13]) of 0.046 A450, an A450 (Mouse Id4: Histidine [14]) of 0.047 A450 and an A450 (Mouse Id2: Histidine [15]) of 0.051 A450. The A450 (Human Id4: Histidine [16]) was 0.049 A450, the A450 (Human Id2: Histidine [17]) was 0.048 A450 and the A450 (Mouse Id4: Histidine [18]) was 0.049 A450. It also gave an A450 (Mouse Id1: Histidine [19]) of 1.39 A450, an A450 (Mouse Id3: Histidine [20]) of 0.05 A450 and an A450 (Mouse Id2: Histidine [21]) of 0.054 A450. It also gave an A450 (Human Id3: Histidine [22]) of 0.047 A450.

With “rabbit monoclonal anti-human Id1, clone #BCH-2/#5-3 (antibody)” the A450 (Human Id4: Histidine [6]) was 0.045 A450, the A450 (Human Id2: Histidine [7]) was 0.046 A450 and the A450 (Mouse Id4: Histidine [8]) was 0.043 A450. The A450 (Mouse Id1: Histidine [9]) was 0.068 A450, the A450 (Mouse Id3: Histidine [10]) was 0.048 A450 and the A450 (Mouse Id2: Histidine [11]) was 0.049 A450. For the same molecule, the A450 (Human Id3: Histidine [12]) was 0.044 A450, the A450 (Human Id4: Histidine [13]) was 0.046 A450 and the A450 (Mouse Id4: Histidine [14]) was 0.045 A450. The A450 (Mouse Id2: Histidine [15]) was 0.051 A450, the A450 (Human Id4: Histidine [16]) was 0.052 A450 and the A450 (Human Id2: Histidine [17]) was 0.048 A450. It also gave an A450 (Mouse Id4: Histidine [18]) of 0.048 A450, an A450 (Mouse Id1: Histidine [19]) of 0.057 A450 and an A450 (Mouse Id3: Histidine [20]) of 0.052 A450. For the same molecule, the A450 (Mouse Id2: Histidine [21]) was 0.05 A450 and the A450 (Human Id3: Histidine [22]) was 0.046 A450.

B1: rabbit monoclonal anti-mouse Id1, clone #BCH-1/#37-2 (antibody, V domains shown)
VH: QSVEESGGRLVTPGTPLTLTCKVSGFDINSYAMDWFRQAPGKGLEWIGMMSTRGNTYYTSWAKGRFTISKTSSTTVDLKMTSLTTEDTATYFCARGGLWGPGTLVTVSS
VL: RVLTQTASPVSAAVGGTVTINCQASQSVYNGNRLGWYQLKPGQSPKELIHDASTLASGVPSRFRGSGSGTQFTLTINDVQCDDAATYYCVGSYACSTGDCNVFGGGTEVVVK
notes: Rabbit IgG from hybridoma, Protein G purified; also called m Id1 MoAb 37-2; Rabbit Monoclonal Anti-Mouse Id1 (#37-2)
In the case of B1, the “Cross-reactivity (%)” value (Human Id4: Histidine [1]) is reported as < 1%, the “Cross-reactivity (%)” value (Human Id2: Histidine [2]) is reported as < 1% and the “Cross-reactivity (%)” value (Mouse Id4: Histidine [3]) is reported as < 1%. For the same molecule, the “Cross-reactivity (%)” value (Mouse Id3: Histidine [4]) was < 1% and the “Cross-reactivity (%)” value (Mouse Id2: Histidine [5]) was < 1%.
